Test results as given in patent publication US20210347908A1 (ELPISCIENCE SUZHOU BIOPHARMA, published 2021).
Where a chain is given by its changes, count along the chain named. Values belong to the binder of their own block, whether it stands above or below them.

Legend:
[1] = target: T1, Fc tagged human SIRPα v1 ECD recombinant protein (human, UniProt P78324 31-370); experiment: ELISA
T1 construct: range 1-370; cloned range M1-R370 includes the signal peptide; also called hSIRPα V1; not shown: human IgG Fc region (hFc) of the pCPC vector
T1 sequence (P78324 31-370 limits assumed): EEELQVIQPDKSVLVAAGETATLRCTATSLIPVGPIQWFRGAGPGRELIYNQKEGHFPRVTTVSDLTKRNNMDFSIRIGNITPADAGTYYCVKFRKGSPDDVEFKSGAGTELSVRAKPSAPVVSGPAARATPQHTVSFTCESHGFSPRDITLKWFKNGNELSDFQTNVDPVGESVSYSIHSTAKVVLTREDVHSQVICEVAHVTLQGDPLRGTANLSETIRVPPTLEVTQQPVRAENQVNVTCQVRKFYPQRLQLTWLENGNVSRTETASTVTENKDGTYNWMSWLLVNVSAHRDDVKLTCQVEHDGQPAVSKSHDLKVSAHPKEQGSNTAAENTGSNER

[2] = target: T2, Fc tagged human SIRPα v2 ECD recombinant protein (human); experiment: ELISA
T2 construct: range 1-369; cloned range M1-R369 includes the signal peptide; also called hSIRPα V2

[3] = target: T3, Fc tagged human SIRPβ ECD recombinant protein (human, UniProt O00241 30-371); experiment: ELISA
T3 construct: range 1-371; cloned range includes the signal peptide; also called hSIRPβ; not shown: human IgG Fc region (hFc) of the pCPC vector
T3 sequence (O00241 30-371 limits assumed, form in doubt): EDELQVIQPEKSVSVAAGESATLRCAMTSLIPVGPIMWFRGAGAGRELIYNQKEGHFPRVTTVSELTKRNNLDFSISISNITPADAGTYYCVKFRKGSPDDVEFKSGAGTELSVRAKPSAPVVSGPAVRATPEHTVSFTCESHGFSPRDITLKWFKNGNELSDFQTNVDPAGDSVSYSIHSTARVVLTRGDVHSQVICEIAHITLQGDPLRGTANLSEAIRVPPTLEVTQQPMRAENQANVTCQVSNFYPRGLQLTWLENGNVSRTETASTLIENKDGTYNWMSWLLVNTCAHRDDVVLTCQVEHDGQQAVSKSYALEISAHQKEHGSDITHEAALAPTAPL

[4] = target: T4, Fc tagged human SIRPγ ECD recombinant protein (human, UniProt Q9P1W8 29-360); experiment: ELISA
T4 construct: range 1-360; cloned range includes the signal peptide; also called hSIRPγ; not shown: human IgG Fc region (hFc) of the pCPC vector
T4 sequence (Q9P1W8 29-360 limits assumed, form in doubt): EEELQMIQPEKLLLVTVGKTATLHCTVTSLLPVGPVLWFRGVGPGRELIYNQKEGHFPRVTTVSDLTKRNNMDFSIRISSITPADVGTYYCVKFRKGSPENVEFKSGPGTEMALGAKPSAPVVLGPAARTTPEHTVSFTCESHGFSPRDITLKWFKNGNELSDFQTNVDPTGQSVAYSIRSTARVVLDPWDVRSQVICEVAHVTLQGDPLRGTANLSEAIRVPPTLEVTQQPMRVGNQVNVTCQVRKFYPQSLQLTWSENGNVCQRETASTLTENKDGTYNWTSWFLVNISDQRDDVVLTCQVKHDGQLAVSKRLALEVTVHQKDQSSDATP

[5] = target: T5, 6×His tagged human SIRPα v8 ECD recombinant protein (human); experiment: ELISA
T5 construct: extracellular domain; bought; also called hSIRPα V8

[6] = target: T6, 6×His tagged human SIRPα v1 ECD recombinant protein (human, UniProt P78324 31-373); experiment: SPR (Biacore)
T6 construct: extracellular domain; bought; also called hSIRPα V1 (SPR antigen)
T6 sequence (P78324 other isoform, or with tags, fused parts or gaps): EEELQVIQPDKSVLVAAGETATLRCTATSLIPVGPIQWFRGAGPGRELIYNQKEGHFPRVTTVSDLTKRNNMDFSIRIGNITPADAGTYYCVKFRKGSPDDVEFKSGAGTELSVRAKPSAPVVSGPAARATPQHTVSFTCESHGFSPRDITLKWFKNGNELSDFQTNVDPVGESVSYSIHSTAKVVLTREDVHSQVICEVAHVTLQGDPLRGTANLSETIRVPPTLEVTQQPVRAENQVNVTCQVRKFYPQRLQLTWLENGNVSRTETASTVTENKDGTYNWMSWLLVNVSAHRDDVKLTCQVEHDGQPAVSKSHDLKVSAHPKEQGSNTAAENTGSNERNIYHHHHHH

[7] = target: T7, full length human SIRPα v1 stably expressed on CHOK1 cells (human, UniProt P78324 31-504); experiment: FACS on CHOK1 cells
T7 construct: whole, on cells; also called CHOK1-human SIRPα v1-1B4 cells; CHOK1-human SIRPα v1
Experimental: (§1) Species cross reactivity of the purified hybridoma antibodies against human, cyno and mouse SIRPα was determined by FACS assay using CHOK1-human SIRPα v1-1B4 cells, CHOK1-cyno SIRPα-2A2 cells, and CHOK1-C57BL/6 mouse SIRPα-2.22 cells, which stably expressing SIRPα protein. Briefly the antibodies were incubated with 2×10⁵ target cells at 4° C. for 1 hour. After washing, fluorescence labeled anti-mouse or anti-human IgG 2nd antibody (Life Technologies) was added and incubated at 4° C. for 1 hour. Geometric median fluorescence intensity was detected and EC₅₀ was calculated. In particular, it is noted, in contrast to the other antibodies tested in the same experiment, 060 cannot bind with cyno SIRPα and 035 has cross reactivity against C57BL/6 mouse SIRPα.

[8] = target: T8, full length cyno SIRPα stably expressed on CHOK1 cells (cynomolgus monkey, UniProt A0A2K5VYQ9 31-507); experiment: FACS on CHOK1 cells
T8 construct: whole, on cells; also called CHOK1-cyno SIRPα-2A2 cells; CHOK1-cyno SIRPα
T8 sequence: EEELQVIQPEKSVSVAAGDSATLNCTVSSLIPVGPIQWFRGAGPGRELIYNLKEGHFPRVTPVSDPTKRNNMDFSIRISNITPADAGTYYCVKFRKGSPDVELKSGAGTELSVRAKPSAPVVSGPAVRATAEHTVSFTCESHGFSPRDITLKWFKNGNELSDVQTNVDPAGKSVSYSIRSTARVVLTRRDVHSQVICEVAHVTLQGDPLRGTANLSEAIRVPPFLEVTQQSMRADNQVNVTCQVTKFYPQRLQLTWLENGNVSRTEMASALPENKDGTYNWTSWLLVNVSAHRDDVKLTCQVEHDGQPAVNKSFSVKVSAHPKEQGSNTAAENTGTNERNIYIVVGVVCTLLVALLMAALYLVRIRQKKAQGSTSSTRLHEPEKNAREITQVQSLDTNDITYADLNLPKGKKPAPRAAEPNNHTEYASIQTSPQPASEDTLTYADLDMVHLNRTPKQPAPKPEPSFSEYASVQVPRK
Experimental: as §1

[9] = target: T9, full length C57BL/6 mouse SIRPα stably expressed on CHOK1 cells (mouse (C57BL/6), UniProt P97797 32-513); experiment: FACS on CHOK1 cells
T9 construct: whole, on cells; also called CHOK1-C57BL/6 mouse SIRPα-2.22 cells
T9 sequence (looked up): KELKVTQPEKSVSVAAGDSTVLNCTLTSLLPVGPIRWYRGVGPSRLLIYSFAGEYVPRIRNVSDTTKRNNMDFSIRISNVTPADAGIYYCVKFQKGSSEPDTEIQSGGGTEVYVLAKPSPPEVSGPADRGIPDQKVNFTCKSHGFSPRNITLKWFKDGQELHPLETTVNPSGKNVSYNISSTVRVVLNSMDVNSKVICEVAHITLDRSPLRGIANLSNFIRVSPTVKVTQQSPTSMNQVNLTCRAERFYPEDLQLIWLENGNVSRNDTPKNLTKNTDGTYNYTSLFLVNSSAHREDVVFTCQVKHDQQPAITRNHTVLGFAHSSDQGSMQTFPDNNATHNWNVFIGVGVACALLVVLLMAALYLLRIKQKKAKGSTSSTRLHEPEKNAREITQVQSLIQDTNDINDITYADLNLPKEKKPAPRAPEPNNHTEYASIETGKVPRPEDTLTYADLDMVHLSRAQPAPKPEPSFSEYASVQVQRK
Experimental: as §1

[10] = target: T6, 6×His tagged human SIRPα v1 ECD …; experiment: SPR (Biacore), antibody captured
Experimental: (§2) Anti-SIRPα chimeric antibodies were characterized for binding affinity against human SIRPα v1, human SIRPα v2 and C57BL/6 mouse SIRPα using Biacore (GE). Briefly the antibodies to be tested were captured to CM5 chip (GE) using Human Antibody Capture Kit (GE). The antigens of 6×His tagged human SIRPα v1, human SIRPα v2 and C57BL/6 mouse SIRPα ECD recombinant proteins were serially diluted for multiple doses and injected at 30 μl/min for 180 s. Buffer flow was maintained for dissociation of 400 s. 3 M MgCl₂ was used for chip regeneration. The association and dissociation curves were fit with 1:1 binding model, and the Ka/Kd/KD values for each antibody were calculated.

[11] = target: T10, biotin labeled soluble human SIRPα v1 ECD recombinant protein (human, UniProt P78324 31-373, biotin labeled); experiment: competitive ELISA, hSIRPα/CD47 blocking
T10 construct: extracellular domain
T10 sequence (P78324 31-373): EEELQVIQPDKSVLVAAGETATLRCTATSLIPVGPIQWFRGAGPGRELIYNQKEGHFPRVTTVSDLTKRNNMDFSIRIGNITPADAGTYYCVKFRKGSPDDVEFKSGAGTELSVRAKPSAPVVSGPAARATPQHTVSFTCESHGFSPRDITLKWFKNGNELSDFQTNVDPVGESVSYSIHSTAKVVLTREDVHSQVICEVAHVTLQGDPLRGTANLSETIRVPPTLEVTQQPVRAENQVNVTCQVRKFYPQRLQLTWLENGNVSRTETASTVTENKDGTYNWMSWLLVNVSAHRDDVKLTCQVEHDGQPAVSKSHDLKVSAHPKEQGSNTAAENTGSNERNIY

[12] = target: T11, 6×His tagged C57BL/6 mouse SIRPα ECD recombinant protein (mouse (C57BL/6), UniProt P97797 32-373); experiment: ELISA on coated mouse SIRPα (C57BL/6) ECD [Continued) F]
T11 construct: extracellular domain; bought; also called mSIRPα (C57BL/6); mouse SIRPα (C57BL/6) ECD
T11 sequence: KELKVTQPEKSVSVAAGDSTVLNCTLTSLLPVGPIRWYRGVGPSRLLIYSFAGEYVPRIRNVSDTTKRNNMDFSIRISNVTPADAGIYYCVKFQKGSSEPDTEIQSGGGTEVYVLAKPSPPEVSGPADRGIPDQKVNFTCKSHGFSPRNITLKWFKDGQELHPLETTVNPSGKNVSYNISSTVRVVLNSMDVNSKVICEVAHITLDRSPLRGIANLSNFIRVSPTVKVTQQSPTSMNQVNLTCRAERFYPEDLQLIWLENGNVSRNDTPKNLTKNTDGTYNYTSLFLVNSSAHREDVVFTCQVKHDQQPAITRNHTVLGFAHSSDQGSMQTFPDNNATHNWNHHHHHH

[13] = target: T12, 6×His tagged human SIRPα v2 ECD recombinant protein (human); experiment: SPR (Biacore)
T12 sequence (chain, as listed by the source): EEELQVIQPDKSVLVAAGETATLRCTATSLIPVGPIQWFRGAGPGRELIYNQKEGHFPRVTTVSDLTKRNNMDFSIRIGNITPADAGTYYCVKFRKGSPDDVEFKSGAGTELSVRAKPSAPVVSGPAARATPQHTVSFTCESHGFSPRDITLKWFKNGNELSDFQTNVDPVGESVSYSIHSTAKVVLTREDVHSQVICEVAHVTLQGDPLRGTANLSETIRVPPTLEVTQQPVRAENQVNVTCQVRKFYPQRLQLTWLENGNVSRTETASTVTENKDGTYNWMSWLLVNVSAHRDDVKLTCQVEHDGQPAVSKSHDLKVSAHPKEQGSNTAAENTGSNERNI

[14] = target: T11, 6×His tagged C57BL/6 mouse SIRPα ECD …; experiment: SPR (Biacore)
[15] = target: T12, 6×His tagged human SIRPα v2 ECD …; experiment: SPR (Biacore), antibody captured
Experimental: as §2

[16] = target: T11, 6×His tagged C57BL/6 mouse SIRPα ECD …; experiment: SPR (Biacore), antibody captured
Experimental: as §2

B2: humanized antibody hu035.13 (antibody, V domains shown)
VH: QIQLVQSGSELKKPGASVKVSCKASGYSITNYAMNWVRQAPGQGLEWMGFINTYTGEPTYAQGFKGRFVFSLDTSVSTAYLQISSLKAEDTAVYYCARTRGYYDFDGGAFDYWGQGTLVTVSS
VL: DIQMTQSPSRLGASVGDRVTITCRASQNVGTHLAWYQQKPGKAPKSLIYSAIYRYIGVPSRFSGSGSGTDFTLTISSLQPEDFATYFCQQYNTYPLTFDQGTKLEIKR
EC50 [1]: 0.14 nM
EC50 [2]: 0.17 nM
EC50 [3]: 0.18 nM
EC50 [4]: 0.67 nM
EC50 [5]: 0.16 nM
Kd [13]: 1.24 nM
Kd [6]: 0.61 nM
Kd [14]: 45.8 nM
EC50 [7]: 1.03 nM
EC50 [8]: 0.26 nM
MFI at 2 ug/ml [9]: 876 MFI
Kd [15]: 3.2 nM
koff [15]: 0.000189 s⁻¹
kon [15]: 59200 M⁻¹ s⁻¹
Kd [10]: 0.61 nM
koff [10]: 0.000117 s⁻¹
kon [10]: 192000 M⁻¹ s⁻¹
Kd [16]: 45.8 nM
koff [16]: 0.00259 s⁻¹
kon [16]: 56600 M⁻¹ s⁻¹
IC50 [11]: 1.33 nM

B3: humanized antibody hu035.10 (antibody, V domains shown)
VH: B2 VH with K23R, S25R, S28T, I29L, N31D, S84G
VL: DIQMTQSPSSLSASVGDRVTITCRASQNVGTHLAWYQQKPGKSPKALIFSAIYRYIGVPSRFSGSGSGTDFTLTISNLQPEDFATYYCQQYNTYPLTFGQGTKLEIK
EC50 [1]: 0.19 nM
EC50 [2]: 0.16 nM
EC50 [3]: 0.19 nM
EC50 [4]: 0.34 nM
EC50 [5]: 0.18 nM
Kd [13]: 2.15 nM
Kd [6]: 3.82 nM
Kd [14]: 33.8 nM
EC50 [7]: 1.44 nM
EC50 [8]: 0.33 nM
MFI at 2 ug/ml [9]: 1110 MFI
Kd [15]: 1.64 nM
koff [15]: 0.00017 s⁻¹
kon [15]: 104000 M⁻¹ s⁻¹
Kd [10]: 3.82 nM
koff [10]: 0.000238 s⁻¹
kon [10]: 62100 M⁻¹ s⁻¹
Kd [16]: 33.8 nM
koff [16]: 0.00152 s⁻¹
kon [16]: 45000 M⁻¹ s⁻¹
IC50 [11]: 1.49 nM
EC50 (read off the curve) [12]: ~0.04 µg/mL

B4: humanized antibody hu035.17 (antibody, V domains shown)
VH: B2 VH with K23R, S25R, S28T, I29L, N31D, S84G
VL: B2 VL with R10S, G12S
EC50 [1]: 0.18 nM
EC50 [2]: 0.15 nM
EC50 [3]: 0.15 nM
EC50 [4]: 0.54 nM
EC50 [5]: 0.26 nM
Kd [13]: 1.43 nM
Kd [6]: 0.86 nM
Kd [14]: 25.9 nM
EC50 [7]: 1.15 nM
EC50 [8]: 0.24 nM
MFI at 2 ug/ml [9]: 1120 MFI
Kd [15]: 2.17 nM
koff [15]: 0.000191 s⁻¹
kon [15]: 88300 M⁻¹ s⁻¹
Kd [10]: 0.86 nM
koff [10]: 0.00012 s⁻¹
kon [10]: 140000 M⁻¹ s⁻¹
Kd [16]: 25.9 nM
koff [16]: 0.0015 s⁻¹
kon [16]: 57900 M⁻¹ s⁻¹
IC50 [11]: 1.22 nM
EC50 (read off the curve) [12]: ~0.04 µg/mL

Next, values leading:

EC50 [1]: 0.13 nM
EC50 [2]: 0.19 nM
EC50 [3]: 0.23 nM
EC50 [4]: 1.05 nM
EC50 [5]: 0.21 nM
Kd [6]: 2.17 nM
EC50 [7]: 1.45 nM
EC50 [8]: 0.36 nM
MFI at 2 ug/ml [9]: 950 MFI
Kd [10]: 2.17 nM
koff [10]: 0.000191 s⁻¹
kon [10]: 88300 M⁻¹ s⁻¹
IC50 [11]: 1.36 nM
EC50 (read off the curve) [12]: ~0.04 µg/mL
B1: humanized antibody hu035.09 (antibody, V domains shown)
VH: B2 VH with K23R, S25G, S28T, I29L, N31D, S84G
VL: B3 VL with S43A, A46S, F49Y, N77S

EC50 [1]: 0.15 nM
EC50 [2]: 0.16 nM
EC50 [3]: 0.23 nM
EC50 [4]: 0.52 nM
EC50 [5]: 0.28 nM
Kd [6]: 1.44 nM
EC50 [7]: 1.31 nM
EC50 [8]: 0.36 nM
MFI at 2 ug/ml [9]: 1050 MFI
Kd [10]: 1.44 nM
koff [10]: 0.000129 s⁻¹
kon [10]: 89200 M⁻¹ s⁻¹
IC50 [11]: 1.46 nM
EC50 (read off the curve) [12]: ~0.04 µg/mL
B5: humanized antibody hu035.14 (antibody, V domains shown)
VH: B2 VH with N31D
VL: B3 VL
